Data: paper PMC3836714, “MYB97, MYB101 and MYB120 Function as Male Factors That Control Pollen Tube-Synergid Interaction in Arabidopsis thaliana Fertilization”

T1: MYB101 MYB domain (Arabidopsis thaliana, UniProt O80883 1-133)
T1 sequence: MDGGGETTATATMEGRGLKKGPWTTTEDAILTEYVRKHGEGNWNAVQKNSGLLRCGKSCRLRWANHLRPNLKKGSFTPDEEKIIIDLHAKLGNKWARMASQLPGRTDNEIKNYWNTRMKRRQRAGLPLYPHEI

B1: DG1WT (dsDNA)
DNA 1: TTATGCATATAACAAAAATAATTTCAATGC
DNA 2: GCATTGAAATTATTTTTGTTATATGCATAA
B2: mDG2WT (dsDNA)
DNA 1: GACACAAATCAACAGCTCGAGGACAAAATT
DNA 2: AATTTTGTCCTCGAGCTGTTGATTTGTGTC
B3: DG2WT (dsDNA)
DNA 1: GACACAAATCAACAGTAACAAAACAAAATT
DNA 2: AATTTTGTTTTGTTACTGTTGATTTGTGTC
B4: DG3WT (dsDNA)
DNA 1: ACGTCGGAAGGATTAACAAAAAAAAAGCCGTGGCGTT
DNA 2: AACGCCACGGCTTTTTTTTTGTTAATCCTTCCGACGT

How the values were obtained:
[1] = biological target: T1, MYB101 MYB domain; assay: EMSA; 10 mM Tris-Cl, 50 mM KCl, 1 mM DTT, pH 7.5, room temperature 20 min; 20 fmol probe, 200 ng protein, 50 ng poly(dI-dC) in 20 ul; 6% native PAGE, 0.5x TBE; conditions: protein: recombinant; tags: 6xHis (pET-30a(+)); annealed complementary oligonucleotides
[2] = biological target: T1, MYB101 MYB domain; assay: competition; 500x molar excess vs labeled DG2WT; 10 mM Tris-Cl, 50 mM KCl, 1 mM DTT, pH 7.5, room temperature 20 min; 20 fmol probe, 200 ng protein, 50 ng poly(dI-dC) in 20 ul; 6% native PAGE, 0.5x TBE; conditions: protein: recombinant; tags: 6xHis (pET-30a(+)); annealed complementary oligonucleotides

| Binder | binding result [1] | binding result [2] |
| --- | --- | --- |
| B1 | binds | – |
| B2 | – | no binding |
| B3 | binds | – |
| B4 | binds | – |
